The text below walks through data of the RNAGym collection of RNA variant scans (doi:10.1101/gr.219683.116).

The chains are these.
B1: mRNA-splicing (parent)
chain: AGUUGCUGCUGGGAGCUCCAGCACAGUGAAAUGGACAGAAGGGCAGAGCAA

This data set covers variants of B1. Briefly: exon inclusion enrichment index; higher = more inclusion; WT1 exon 5 minigene, HEK293.
In the case of G5C C6G U7C U10C G11C, the “exon inclusion enrichment index” value turned out to be 2.92.
For G5C C6G U7C U10C C24U A25U, the “exon inclusion enrichment index” value was 3.01.
As for G5C C6G U7C U10C C24U A25C, the figure is 4.56.
On to G5C C6G U7C U10C C24U A25G, for which the “exon inclusion enrichment index” value amounted to 4.57.
Regarding G5C C6G U7C U10C C44U A45G, the “exon inclusion enrichment index” value turned out to be 2.53.
Regarding G5C C6G U7C U10C C44U A45U, the “exon inclusion enrichment index” value stood at 2.84.
Take G5C C6G U7C U10C C44U A45C: the “exon inclusion enrichment index” value worked out at 4.13.
Regarding G5C C6G U7C U10C A40U G41U, the “exon inclusion enrichment index” value came out at 2.15.
Next, G5C C6G U7C U10C A40U G41A: 0.26; G5C C6G U7C U10C A40U G41C: 3.11; G5C C6G U7C U10C A35U: 1.25.
Next, G5C C6G U7C U10C A35C: 1.69.
Next, G5C C6G U7C U10C A35G: 1.93; G5C C6G U7C U10C C16A U17C: 4.04; G5C C6G U7C U10C C16A U17A: 4.02.
Turning to G5C C6G U7C U10C C16A U17G, the “exon inclusion enrichment index” value came out at 3.25.
Turning to G5C C6G U7C U10C G43C C44G, the “exon inclusion enrichment index” value stood at 6.55.
Next, G5C C6G U7C U10C G43C C44U: 3.09.
On to G5C C6G U7C U10C G43C C44A, for which the “exon inclusion enrichment index” value is 3.83.
As for G5C C6G U7C U10C G15C C16U, the figure is 3.37; as for G5C C6G U7C U10C G15C C16G, 3.66.
As for G5C C6G U7C U10C G15C C16A, the figure is 3.23; as for G5C C6G U7C U10C G28A A29U, 1.28; as for G5C C6G U7C U10C G28A A29G, 2.1.
Take G5C C6G U7C U10C G28A A29C: the “exon inclusion enrichment index” value was 2.29.
For the variant G5C C6G U7C U10C G42A, the “exon inclusion enrichment index” value was 4.32.
Regarding G5C C6G U7C U10C G42U, the “exon inclusion enrichment index” value was 4.02.
Turning to G5C C6G U7C U10C G42C, the “exon inclusion enrichment index” value stood at 4.75.
As for G5C C6G U7C U10C C22A, the figure is 3.06; as for G5C C6G U7C U10C C22G, 3.75.
Next, G5C C6G U7C U10C C22U: 3.4.
As for G5C C6G U7C U10C G26A U27A, the figure is 3.45; as for G5C C6G U7C U10C G26A U27C, 4.94.
Turning to G5C C6G U7C U10C G26A U27G, the “exon inclusion enrichment index” value turned out to be 3.56.
In the case of G5C C6G U7C U10C G43A C44G, the “exon inclusion enrichment index” value was found to be 4.94.
With G5C C6G U7C U10C G43A C44A, the “exon inclusion enrichment index” value stood at 4.31.
With G5C C6G U7C U10C G43A C44U, the “exon inclusion enrichment index” value stood at 3.64.
G5C C6G U7C U10C A45U G46A: the “exon inclusion enrichment index” value worked out at 2.95.
In the case of G5C C6G U7C U10C A45U G46C, the “exon inclusion enrichment index” value was found to be 2.33.
Next, G5C C6G U7C U10C A45U G46U: 1.75; G5C C6G U7C U10C G33A G34A: 0.795; G5C C6G U7C U10C G33A G34C: 0.988.
As for G5C C6G U7C U10C G33A G34U, the figure is 0.979.
Next, G5C C6G U7C U10C C18A C19A: 1.63; G5C C6G U7C U10C C18A C19G: 1.5.
Regarding G5C C6G U7C U10C C18A C19U, the “exon inclusion enrichment index” value was 0.321.
Next, G5C C6G U7C U10C G21A C22U: 1.87; G5C C6G U7C U10C G21A C22A: 1.7; G5C C6G U7C U10C G21A C22G: 3.81.
Next, G5C C6G U7C U10C C16G U17C: 2.62; G5C C6G U7C U10C C16G U17G: 1.27; G5C C6G U7C U10C C16G U17A: 4.71.
Consider G5C C6G U7C U10C A37G G38A, for which the “exon inclusion enrichment index” value is 2.92.
With G5C C6G U7C U10C A37G G38U, the “exon inclusion enrichment index” value amounted to 1.81.
On to G5C C6G U7C U10C A37G G38C, for which the “exon inclusion enrichment index” value was 3.22.
As for G5C C6G U7C U10C A30C A31U, the figure is 3.41; as for G5C C6G U7C U10C A30C A31G, 4.15; as for G5C C6G U7C U10C C19A, 2.65.
Regarding G5C C6G U7C U10C C19G, the “exon inclusion enrichment index” value came to 3.72.
For the variant G5C C6G U7C U10C C19U, the “exon inclusion enrichment index” value came to 0.492.
As for G5C C6G U7C U10C A47G, the figure is 0.871; as for G5C C6G U7C U10C A47C, 3.06.
Next, G5C C6G U7C U10C A47U: 3.3; G5C C6G U7C U10C G26U: 3.19.
Regarding G5C C6G U7C U10C G26A, the “exon inclusion enrichment index” value stood at 4.41.
In the case of G5C C6G U7C U10C G26C, the “exon inclusion enrichment index” value is 3.97.
As for G5C C6G U7C U10C A47U G48A, the figure is 3.03; as for G5C C6G U7C U10C A47U G48U, 3.16.
Next, G5C C6G U7C U10C A47U G48C: 2.42.
With G5C C6G U7C U10C G41C, the “exon inclusion enrichment index” value worked out at 4.53.
Regarding G5C C6G U7C U10C G41U, the “exon inclusion enrichment index” value was 3.2.
As for G5C C6G U7C U10C G41A, the figure is 2.7.
As for G5C C6G U7C U10C G41A G42U, the figure is 2.89.
G5C C6G U7C U10C G41A G42A: the “exon inclusion enrichment index” value is 2.54.
Next, G5C C6G U7C U10C G41A G42C: 3.88.
For the variant G5C C6G U7C U10C A45U, the “exon inclusion enrichment index” value is 4.56.
As for G5C C6G U7C U10C A45C, the “exon inclusion enrichment index” value worked out at 3.17.
As for G5C C6G U7C U10C A45G, the figure is 5.32.
In the case of G5C C6G U7C U10C A37C G38U, the “exon inclusion enrichment index” value was 2.1.
Turning to G5C C6G U7C U10C A37C G38A, the “exon inclusion enrichment index” value amounted to 2.71.
Next, G5C C6G U7C U10C A37C G38C: 2.99.
As for G5C C6G U7C U10C C18A, the figure is 3.25; as for G5C C6G U7C U10C C18G, 3.71; as for G5C C6G U7C U10C C18U, 3.14.
